Assay results: patent US5786328

What was measured:
[1] = target: Human plasma kallikrein (human) (UniProt P03952)
Human Factor XIa (human) [2] = target: Human Factor XIa (human) (UniProt P03951)
[3] = target: tissue factor-Factor VIIa (human) (UniProt P13726)
[4] = target: Human plasma kallikrein (human) (UniProt P03952); assay: inhibition of human plasma kallikrein, substrate S2302, fit for tight-binding inhibitors (apparent Ki*)
Human Factor XIa (human) [5] = target: Human Factor XIa (human) (UniProt P03951); assay: inhibition of FXIa, chromogenic substrate, fit for tight-binding inhibitors (apparent Ki*)
Human Factor XIa (human) [6] = target: Human Factor XIa (human) (UniProt P03951); remark: listed apart in the source

fraction of remaining proteolytic activity with 100 nM inhibitor (fraction of uninhibited rate) [1]: 0.81 | fraction of remaining proteolytic activity with 100 nM inhibitor (fraction of uninhibited rate) (Human Factor XIa (human) [2]): 0.03 | fraction of remaining proteolytic activity with 100 nM inhibitor (fraction of uninhibited rate) [3]: 0.6 | Ki [4]: 340 nM | Ki (Human Factor XIa (human) [5]): 2.7 nM | fold prolongation of the clotting time of normal human plasma, APTT assay (Human Factor XIa (human) [6]): 2.8 fold
Substance: APPI (Alzheimer's amyloid β-protein precursor inhibitor)
